Source: paper PMC9482650, “Quantitative fragmentomics allow affinity mapping of interactomes” (Nature Communications, 2022)

How the values were obtained:
Test in all cases: holdup assay
Set-up in all cases: key: below the threshold = too weak to quantify, mostly under pKd 3.1 to 4
Details in all cases: plain residues with an end cap or a label only (N-terminal biotin on a linker: ado-ado)
NHERF4_4, Q86UT5 = biological target: NHERF4_4, Q86UT5
NHERF3_4, Q5T2W1 = biological target: T1, NHERF3_4, Q5T2W1
T1 sequence (Q5T2W1 373-468, limits assumed, looked up): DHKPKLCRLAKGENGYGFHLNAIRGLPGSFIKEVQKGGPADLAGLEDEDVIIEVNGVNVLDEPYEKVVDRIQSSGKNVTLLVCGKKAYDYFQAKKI

GRIP2_4, Q9C0E4 = biological target: GRIP2_4, Q9C0E4
DLG4_1, P78352 = biological target: DLG4_1, P78352
FRMPD2_1, Q68DX3 = biological target: FRMPD2_1, Q68DX3
SNTG2, Q9NY99 = biological target: T2, SNTG2, Q9NY99
T2 sequence (Q9NY99 68-166, limits assumed, looked up): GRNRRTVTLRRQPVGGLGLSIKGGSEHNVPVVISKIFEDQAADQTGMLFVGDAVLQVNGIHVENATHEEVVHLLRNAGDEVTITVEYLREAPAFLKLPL

Inadl_10, Q8NI35 = biological target: Inadl_10, Q8NI35
APBA1_2, Q02410 = biological target: T3, APBA1_2, Q02410
T3 sequence (Q02410 742-832, limits assumed, looked up): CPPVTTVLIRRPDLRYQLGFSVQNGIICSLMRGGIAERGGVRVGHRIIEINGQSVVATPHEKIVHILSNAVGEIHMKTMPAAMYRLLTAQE

SNTG1, Q9NSN8 = biological target: T4, SNTG1, Q9NSN8
T4 sequence (Q9NSN8 52-150, limits assumed, looked up): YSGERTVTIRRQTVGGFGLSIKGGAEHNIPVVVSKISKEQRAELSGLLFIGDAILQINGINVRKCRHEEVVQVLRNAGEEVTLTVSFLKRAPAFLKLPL

LIN7C, Q9NUP9 = biological target: T5, LIN7C, Q9NUP9
T5 sequence (Q9NUP9 88-185, limits assumed, looked up): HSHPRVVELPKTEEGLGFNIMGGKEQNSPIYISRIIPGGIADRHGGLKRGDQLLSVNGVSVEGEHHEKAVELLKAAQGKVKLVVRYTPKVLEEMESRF

GRIP1_5, Q9Y3R0 = biological target: T6, GRIP1_5, Q9Y3R0
T6 sequence (Q9Y3R0 568-668, limits assumed, looked up): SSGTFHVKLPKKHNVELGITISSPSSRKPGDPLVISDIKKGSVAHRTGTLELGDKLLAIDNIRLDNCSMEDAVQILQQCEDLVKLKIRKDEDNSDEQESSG

IL16_3, Q14005 = biological target: IL16_3, Q14005
PTPN3, P26045 = biological target: PTPN3, P26045
LIMK2, P53671 = biological target: LIMK2, P53671
GIPC2, Q8TF65 = biological target: GIPC2, Q8TF65
DLG1_1, Q12959 = biological target: DLG1_1, Q12959
Inadl_8, Q8NI35 = biological target: Inadl_8, Q8NI35
DLG4_3, P78352 = biological target: DLG4_3, P78352
PDZD2_2, O15018 = biological target: T7, PDZD2_2, O15018
T7 sequence (O15018 329-429, limits assumed, looked up): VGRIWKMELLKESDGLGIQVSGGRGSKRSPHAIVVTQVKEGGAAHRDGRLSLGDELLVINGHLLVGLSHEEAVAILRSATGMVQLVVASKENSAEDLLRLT

DVL3, Q92997 = biological target: T8, DVL3, Q92997
T8 sequence (Q92997 244-331, limits assumed, looked up): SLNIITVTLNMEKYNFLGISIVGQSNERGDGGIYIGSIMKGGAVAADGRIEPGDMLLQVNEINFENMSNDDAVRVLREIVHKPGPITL

GRIP2_7, Q9C0E4 = biological target: GRIP2_7, Q9C0E4
APBA1_1, Q02410 = biological target: T9, APBA1_1, Q02410
T9 sequence (Q02410 651-752, limits assumed, looked up): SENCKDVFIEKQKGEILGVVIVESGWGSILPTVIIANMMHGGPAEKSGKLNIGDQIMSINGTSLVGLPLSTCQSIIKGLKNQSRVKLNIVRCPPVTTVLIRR

GORASP2, Q9H8Y8 = biological target: GORASP2, Q9H8Y8
MAST2, Q6P0Q8 = biological target: MAST2, Q6P0Q8
SCRIB_2, Q14160 = biological target: SCRIB_2, Q14160
MPDZ_12, O75970 = biological target: T10, MPDZ_12, O75970
T10 sequence (O75970 1857-1958, limits assumed, looked up): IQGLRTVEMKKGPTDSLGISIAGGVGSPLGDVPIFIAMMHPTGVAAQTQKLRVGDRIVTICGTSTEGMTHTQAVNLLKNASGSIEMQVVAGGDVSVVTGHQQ

LNX2_3, Q8N448 = biological target: T11, LNX2_3, Q8N448
T11 sequence (Q8N448 463-564, limits assumed, looked up): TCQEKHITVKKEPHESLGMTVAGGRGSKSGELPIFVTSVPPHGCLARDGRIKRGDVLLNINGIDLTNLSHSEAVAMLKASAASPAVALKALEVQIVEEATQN

Chain of NHERF4_4, Q86UT5 (Q86UT5 464-550): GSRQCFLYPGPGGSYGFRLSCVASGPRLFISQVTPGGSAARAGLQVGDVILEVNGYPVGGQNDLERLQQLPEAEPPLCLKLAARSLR
Chain of Inadl_8, Q8NI35 (Q8NI35 1425-1530): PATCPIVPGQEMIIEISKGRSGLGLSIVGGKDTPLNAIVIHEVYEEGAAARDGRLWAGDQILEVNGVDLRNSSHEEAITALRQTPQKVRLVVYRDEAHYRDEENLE
Chain of GRIP2_7, Q9C0E4 (Q9C0E4 934-1023): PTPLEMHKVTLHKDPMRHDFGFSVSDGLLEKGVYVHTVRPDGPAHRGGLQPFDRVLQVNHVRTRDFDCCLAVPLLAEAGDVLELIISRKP
Chain of MAST2, Q6P0Q8 (Q6P0Q8 1099-1202): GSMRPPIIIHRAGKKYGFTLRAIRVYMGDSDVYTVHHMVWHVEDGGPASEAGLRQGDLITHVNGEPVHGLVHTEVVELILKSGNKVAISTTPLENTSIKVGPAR
Chain of Inadl_10, Q8NI35 (Q8NI35 1673-1763): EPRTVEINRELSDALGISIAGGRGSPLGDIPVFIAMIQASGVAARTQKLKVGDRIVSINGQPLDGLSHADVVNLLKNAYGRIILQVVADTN
Chain of LIMK2, P53671 (P53671 143-248): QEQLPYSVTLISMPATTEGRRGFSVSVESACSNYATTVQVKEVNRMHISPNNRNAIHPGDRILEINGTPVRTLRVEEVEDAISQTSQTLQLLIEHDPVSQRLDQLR
Chain of IL16_3, Q14005 (Q14005 1107-1207): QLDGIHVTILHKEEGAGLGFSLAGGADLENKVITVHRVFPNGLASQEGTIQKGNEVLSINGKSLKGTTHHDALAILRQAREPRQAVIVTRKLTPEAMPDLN
Chain of DLG4_1, P78352 (P78352 62-152): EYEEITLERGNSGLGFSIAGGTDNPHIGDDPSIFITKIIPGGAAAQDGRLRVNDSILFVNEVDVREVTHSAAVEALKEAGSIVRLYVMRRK
Chain of DLG4_3, P78352 (P78352 306-403): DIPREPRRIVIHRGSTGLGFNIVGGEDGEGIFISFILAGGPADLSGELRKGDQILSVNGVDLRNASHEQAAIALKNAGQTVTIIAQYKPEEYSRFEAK
Chain of FRMPD2_1, Q68DX3 (Q68DX3 770-861): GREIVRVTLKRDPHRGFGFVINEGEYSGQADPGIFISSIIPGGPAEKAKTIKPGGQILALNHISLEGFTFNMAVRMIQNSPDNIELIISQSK
Chain of SCRIB_2, Q14160 (Q14160 857-960): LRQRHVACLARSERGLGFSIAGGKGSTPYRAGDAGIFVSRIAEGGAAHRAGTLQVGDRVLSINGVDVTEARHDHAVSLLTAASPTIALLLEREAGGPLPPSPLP
Chain of PTPN3, P26045 (P26045 505-587): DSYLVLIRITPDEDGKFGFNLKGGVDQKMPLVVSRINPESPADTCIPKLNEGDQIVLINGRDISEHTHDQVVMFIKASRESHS
Chain of GRIP2_4, Q9C0E4 (Q9C0E4 446-548): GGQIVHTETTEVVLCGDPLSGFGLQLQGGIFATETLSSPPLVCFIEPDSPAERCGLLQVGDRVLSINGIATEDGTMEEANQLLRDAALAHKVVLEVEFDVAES
Chain of GIPC2, Q8TF65 (Q8TF65 112-203): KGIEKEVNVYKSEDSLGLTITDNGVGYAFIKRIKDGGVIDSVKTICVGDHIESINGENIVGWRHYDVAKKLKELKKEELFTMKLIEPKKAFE

Row | Binder | pKd (NHERF4_4, Q86UT5) | pKd (NHERF3_4, Q5T2W1) | pKd (GRIP2_4, Q9C0E4) | pKd (DLG4_1, P78352) | pKd (FRMPD2_1, Q68DX3) | pKd (SNTG2, Q9NY99) | pKd (Inadl_10, Q8NI35) | pKd (APBA1_2, Q02410) | pKd (SNTG1, Q9NSN8) | pKd (LIN7C, Q9NUP9) | pKd (GRIP1_5, Q9Y3R0) | pKd (IL16_3, Q14005) | pKd (PTPN3, P26045) | pKd (LIMK2, P53671) | pKd (GIPC2, Q8TF65) | pKd (DLG1_1, Q12959) | pKd (Inadl_8, Q8NI35) | pKd (DLG4_3, P78352) | pKd (PDZD2_2, O15018) | pKd (DVL3, Q92997) | other results
1 | ILRKSTTTTV [PRR16, Q569H4] | below the threshold | below the threshold | below the threshold | 4.78 | below the threshold | below the threshold | below the threshold | below the threshold | 3.49 | below the threshold | below the threshold | below the threshold | 3.92 | below the threshold | below the threshold | 4.76 | 3.62 | 4.12 | 4.18 | below the threshold | pKd (GRIP2_7, Q9C0E4): below the threshold; pKd (APBA1_1, Q02410): below the threshold; pKd (GORASP2, Q9H8Y8): 4.73; pKd (MAST2, Q6P0Q8): 5.05; pKd (SCRIB_2, Q14160): below the threshold; pKd (MPDZ_12, O75970): below the threshold; pKd (LNX2_3, Q8N448): below the threshold
2 | STKRKLASAV [NCF1, P14598] | below the threshold | below the threshold | below the threshold | below the threshold | below the threshold | below the threshold | below the threshold | 3.88 | below the threshold | below the threshold | below the threshold | below the threshold | 3.95 | below the threshold | below the threshold | 3.68 | 4.46 | 3.67 | 4.51 | below the threshold | pKd (GRIP2_7, Q9C0E4): below the threshold; pKd (APBA1_1, Q02410): below the threshold; pKd (GORASP2, Q9H8Y8): below the threshold; pKd (MAST2, Q6P0Q8): 4.54; pKd (SCRIB_2, Q14160): below the threshold; pKd (MPDZ_12, O75970): 3.52; pKd (LNX2_3, Q8N448): below the threshold
3 | ARESQKVSHV [FAM110B, Q8TC76] | below the threshold | below the threshold | below the threshold | 4.06 | below the threshold | 4.08 | below the threshold | 4.41 | 4.34 | below the threshold | below the threshold | below the threshold | 4.51 | below the threshold | below the threshold | 3.95 | 4.8 | below the threshold | 5.17 | below the threshold | pKd (GRIP2_7, Q9C0E4): below the threshold; pKd (APBA1_1, Q02410): below the threshold; pKd (GORASP2, Q9H8Y8): 4.88; pKd (MAST2, Q6P0Q8): 4.76; pKd (SCRIB_2, Q14160): below the threshold; pKd (MPDZ_12, O75970): below the threshold; pKd (LNX2_3, Q8N448): below the threshold
4 | TNSRHGETTV [FZD2, Q14332] | 3.92 | below the threshold | below the threshold | 4.85 | 3.6 | 4.29 | below the threshold | 3.71 | 4.27 | 4.6 | below the threshold | below the threshold | 4.61 | below the threshold | 4.22 | 4.76 | 3.57 | 4.24 | 4.18 | below the threshold | pKd (GRIP2_7, Q9C0E4): below the threshold; pKd (APBA1_1, Q02410): below the threshold; pKd (GORASP2, Q9H8Y8): 4.19; pKd (MAST2, Q6P0Q8): 5.05; pKd (SCRIB_2, Q14160): 4.42; pKd (MPDZ_12, O75970): below the threshold; pKd (LNX2_3, Q8N448): below the threshold
5 | SPDRDRESIV [SCN5A, Q14524] | 3.88 | below the threshold | below the threshold | 4.46 | below the threshold | 4.69 | below the threshold | 3.55 | 4.72 | 4.12 | below the threshold | below the threshold | 4.78 | below the threshold | 4.06 | 4.28 | 3.85 | below the threshold | 5.4 | below the threshold | pKd (GRIP2_7, Q9C0E4): below the threshold; pKd (APBA1_1, Q02410): below the threshold; pKd (GORASP2, Q9H8Y8): 3.88; pKd (MAST2, Q6P0Q8): 4.53; pKd (SCRIB_2, Q14160): below the threshold; pKd (MPDZ_12, O75970): below the threshold; pKd (LNX2_3, Q8N448): below the threshold
6 | LESTTVGTSV [KARS1, Q15046] | below the threshold | below the threshold | below the threshold | 4.13 | below the threshold | below the threshold | below the threshold | 4.69 | 3.7 | below the threshold | below the threshold | below the threshold | 4.82 | below the threshold | below the threshold | 4.27 | 4.15 | 3.58 | 4.87 | below the threshold | pKd (GRIP2_7, Q9C0E4): below the threshold; pKd (APBA1_1, Q02410): below the threshold; pKd (GORASP2, Q9H8Y8): below the threshold; pKd (MAST2, Q6P0Q8): 5.02; pKd (SCRIB_2, Q14160): 4.46; pKd (MPDZ_12, O75970): 3.62; pKd (LNX2_3, Q8N448): below the threshold
